Experimental data taken from publication PMC10637977, “The preferential transport of NO3^− by full-length Guillardia theta anion channelrhodopsin 1 is enhanced by its extended cytoplasmic domain” (The Journal of Biological Chemistry, 2023).

B1: GtACR1 without the CPD (GtACR1_ΔCPD), C-terminal eight-histidine tag (domain or fragment, Guillardia theta, UniProt L1J207 1-295, looked up)
chain: MSSITCDPAIYGEWSRENQFCVEKSLITLDGIKYVQLVMAVVSACQVFFMVTRAPKVPWEAIYLPTTEMITYSLAFTGNGYIRVANGKYLPWARMASWLCTCPIMLGLVSNMALVKYKSIPLNPMMIAASSICTVFGITASVVLDPLHVWLYCFISSIFFIFEMVVAFAIFAITIHDFQTIGSPMSLKVVERLKLMRIVFYVSWMAYPILWSFSSTGACIMSENTSSVLYLLGDALCKNTYGILLWATTWGLLNGKWDRDYVKGRNVDGTLMPEYEQDLEKGNTERYEDARAGET
modifications: all-trans-retinal bound to Lys238 via a protonated Schiff base linkage
notes: Guillardia theta anion channelrhodopsin 1 (GtACR1) with the C-terminal cytoplasmic domain (CPD, 143 amino acids) deleted; composed of 295 amino acids; Calculated molecular mass 34.4 kDa; also called CPD-deleted GtACR1; GtACR1 rhodopsin domain; source: P. pastoris SMD1168H, recombinant expression (pPICZ B vector, codon-optimised gene); not shown: His8, C-terminal, kept
B2: full-length Guillardia theta anion channelrhodopsin 1 (GtACR1_full) (natural protein, UniProt L1J207 1-438, looked up)
chain: MSSITCDPAIYGEWSRENQFCVEKSLITLDGIKYVQLVMAVVSACQVFFMVTRAPKVPWEAIYLPTTEMITYSLAFTGNGYIRVANGKYLPWARMASWLCTCPIMLGLVSNMALVKYKSIPLNPMMIAASSICTVFGITASVVLDPLHVWLYCFISSIFFIFEMVVAFAIFAITIHDFQTIGSPMSLKVVERLKLMRIVFYVSWMAYPILWSFSSTGACIMSENTSSVLYLLGDALCKNTYGILLWATTWGLLNGKWDRDYVKGRNVDGTLMPEYEQDLEKGNTERYEDARAGETFEVKMFGRTLTSVRRSRRRPRRDIVFNGGDRNRLSDSDSERRRRRKKYQRKDSESENSSDESMGSEHEKNRRKGKKKNKENRRSAPPKEDSTSDTLRDAEIKRIMDLMKRNAGSDIPGLDGDGRLRDDGGLIPTRNEEHDDSA
modifications: all-trans-retinal bound to Lys238 via a protonated Schiff base linkage
notes: Guillardia theta anion channelrhodopsin 1 (GtACR1), full length, 438 amino acids (rhodopsin domain plus cytoplasmic domain, CPD); Calculated molecular mass 51.0 kDa; Details of construction and expression are in the Supporting information; also called full-length GtACR1; source: P. pastoris SMD1168H, recombinant expression (pPICZ B vector, codon-optimised gene); not shown: His8, C-terminal, kept

Target: the molecule itself
Experiment: SDS-PAGE and Western blot; P. pastoris cells expressing the protein compared with a negative control; immunoblotting with an anti-His tag antibody; bands assigned to monomer and dimer by molecular mass

Protein	stoichiometry N
B1	2
B2	2
